One block for each binder: values may come before it.
B3: GST-TACC3-CT E629A (domain or fragment)
chain: not shown

Experiments:
GST-TACC3-CT E629A = target: B3; experiment: AlphaScreen or HTRF
ARNT2 PAS-B E372A = ARNT2 PAS-B E372A (human, UniProt Q9HBZ2 330-444, E372A); experiment: pull-down
ARNT2 PAS-B K391A = ARNT2 PAS-B K391A (human, UniProt Q9HBZ2 330-444, K391A); experiment: pull-down
[1] = target: His-ARNT2 PAS-B (human ARNT2 residues 330-444) (human, UniProt Q9HBZ2 330-444); experiment: pull-down
[2] = target: T1, His-ARNT PAS-B (human ARNT residues 356-470) (human, UniProt P27540 356-470); experiment: pull-down
[3] = target: T1, His-ARNT PAS-B (human ARNT residues …); experiment: AlphaScreen or HTRF

IC50 (GST-TACC3-CT E629A): 2 to 3 µM
B1: untagged ARNT PAS-B (domain or fragment)
chain: not shown

binding result (ARNT2 PAS-B E372A): binds
binding result (ARNT2 PAS-B K391A): binds
binding result [1]: binds
binding result [2]: binds
B2: GST-TACC3-CT (murine TACC3 residues 561-631) (domain or fragment)
chain: not shown

Binder: B3
binding result [3]: binds
